From patent US20120172293A1 (Takeda / Millennium, published 2012)
Non-standard residues stand in square brackets, D forms with d. *: point of attachment. 4‑guanidinomethylbenzoyl = N=C(N)NCc1ccc(C(=O)*)cc1; βHOAla = beta-homoalanine (β-HOAla), D- or L-form; 4Pal = N[C@@H](Cc1ccncc1)C(=O)O; d(pGlu) = O=C1CC[C@H](C(=O)O)N1; Cha = N[C@@H](CC1CCCCC1)C(=O)O; Isonicotinoyl = O=C(c1ccncc1)*; Aipe = 3-aminobutanoic acid; dIva = CC[C@@](C)(N)C(=O)O; Iva = CC[C@](C)(N)C(=O)O; Nle = CCCC[C@H](N)C(=O)O; Aib = CC(C)(N)C(=O)O

B1: Ac-[Aib24,28,31, Pya(4)26, Cha27,36, Lys30]-PYY(23-36) (peptide)
peptide: Ac-S[Aib]R[4Pal][Cha][Aib]NK[Aib]TRQR[Cha]-NH2
SMILES: CC(=O)N[C@@H](CO)C(=O)NC(C)(C)C(=O)N[C@@H](CCCNC(=N)N)C(=O)N[C@@H](Cc1ccncc1)C(=O)N[C@@H](CC1CCCCC1)C(=O)NC(C)(C)C(=O)N[C@@H](CC(N)=O)C(=O)N[C@@H](CCCCN)C(=O)NC(C)(C)C(=O)N[C@H](C(=O)N[C@@H](CCCNC(=N)N)C(=O)N[C@@H](CCC(N)=O)C(=O)N[C@@H](CCCNC(=N)N)C(=O)N[C@@H](CC1CCCCC1)C(N)=O)[C@@H](C)O
B2: Ac-[D-Pro24, Iva25, Pya(4)26, Cha27,36, Aib28,31, Lys30]-PYY(23-36) (peptide)
peptide: Ac-S[dP][Iva][4Pal][Cha][Aib]NK[Aib]TRQR[Cha]-NH2
SMILES: CC[C@](C)(NC(=O)[C@H]1CCCN1C(=O)[C@H](CO)NC(C)=O)C(=O)N[C@@H](Cc1ccncc1)C(=O)N[C@@H](CC1CCCCC1)C(=O)NC(C)(C)C(=O)N[C@@H](CC(N)=O)C(=O)N[C@@H](CCCCN)C(=O)NC(C)(C)C(=O)N[C@H](C(=O)N[C@@H](CCCNC(=N)N)C(=O)N[C@@H](CCC(N)=O)C(=O)N[C@@H](CCCNC(=N)N)C(=O)N[C@@H](CC1CCCCC1)C(N)=O)[C@@H](C)O
B3: Ac-[D-Pro24, Pya(4)26, Cha27,36, Aib28,31, Lys30]-PYY(24-36) (peptide)
peptide: Ac-[dP]R[4Pal][Cha][Aib]NK[Aib]TRQR[Cha]-NH2
SMILES: CC(=O)N1CCC[C@@H]1C(=O)N[C@@H](CCCNC(=N)N)C(=O)N[C@@H](Cc1ccncc1)C(=O)N[C@@H](CC1CCCCC1)C(=O)NC(C)(C)C(=O)N[C@@H](CC(N)=O)C(=O)N[C@@H](CCCCN)C(=O)NC(C)(C)C(=O)N[C@H](C(=O)N[C@@H](CCCNC(=N)N)C(=O)N[C@@H](CCC(N)=O)C(=O)N[C@@H](CCCNC(=N)N)C(=O)N[C@@H](CC1CCCCC1)C(N)=O)[C@@H](C)O
B4: Ac-[D-Pro24, Aib25,28,31, Pya(4)26, Cha27,36, Lys30]-PYY(23-36) (peptide)
peptide: Ac-S[dP][Aib][4Pal][Cha][Aib]NK[Aib]TRQR[Cha]-NH2
SMILES: CC(=O)N[C@@H](CO)C(=O)N1CCC[C@@H]1C(=O)NC(C)(C)C(=O)N[C@@H](Cc1ccncc1)C(=O)N[C@@H](CC1CCCCC1)C(=O)NC(C)(C)C(=O)N[C@@H](CC(N)=O)C(=O)N[C@@H](CCCCN)C(=O)NC(C)(C)C(=O)N[C@H](C(=O)N[C@@H](CCCNC(=N)N)C(=O)N[C@@H](CCC(N)=O)C(=O)N[C@@H](CCCNC(=N)N)C(=O)N[C@@H](CC1CCCCC1)C(N)=O)[C@@H](C)O
B5: Ac-[D-Iva24, Pya(4)26, Cha27,36, Aib28,31, Lys30]-PYY(23-36) (peptide)
peptide: Ac-S[dIva]R[4Pal][Cha][Aib]NK[Aib]TRQR[Cha]-NH2
SMILES: CC[C@@](C)(NC(=O)[C@H](CO)NC(C)=O)C(=O)N[C@@H](CCCNC(=N)N)C(=O)N[C@@H](Cc1ccncc1)C(=O)N[C@@H](CC1CCCCC1)C(=O)NC(C)(C)C(=O)N[C@@H](CC(N)=O)C(=O)N[C@@H](CCCCN)C(=O)NC(C)(C)C(=O)N[C@H](C(=O)N[C@@H](CCCNC(=N)N)C(=O)N[C@@H](CCC(N)=O)C(=O)N[C@@H](CCCNC(=N)N)C(=O)N[C@@H](CC1CCCCC1)C(N)=O)[C@@H](C)O
B6: 4-Guanidinomethylbenzoyl-[Iva25, Cha27,36, Aib28,31, Lys30]-PYY(25-36) (peptide)
peptide: {4‑guanidinomethylbenzoyl}-[Iva]H[Cha][Aib]NK[Aib]TRQR[Cha]-NH2
SMILES: CC[C@](C)(NC(=O)c1ccc(CNC(=N)N)cc1)C(=O)N[C@@H](Cc1c[nH]cn1)C(=O)N[C@@H](CC1CCCCC1)C(=O)NC(C)(C)C(=O)N[C@@H](CC(N)=O)C(=O)N[C@@H](CCCCN)C(=O)NC(C)(C)C(=O)N[C@H](C(=O)N[C@@H](CCCNC(=N)N)C(=O)N[C@@H](CCC(N)=O)C(=O)N[C@@H](CCCNC(=N)N)C(=O)N[C@@H](CC1CCCCC1)C(N)=O)[C@@H](C)O
B7: Ac-[D-Pro24, Iva25, Cha27,36, Aib28,31, Lys30]-PYY(23-36) (peptide)
peptide: Ac-S[dP][Iva]H[Cha][Aib]NK[Aib]TRQR[Cha]-NH2
SMILES: CC[C@](C)(NC(=O)[C@H]1CCCN1C(=O)[C@H](CO)NC(C)=O)C(=O)N[C@@H](Cc1c[nH]cn1)C(=O)N[C@@H](CC1CCCCC1)C(=O)NC(C)(C)C(=O)N[C@@H](CC(N)=O)C(=O)N[C@@H](CCCCN)C(=O)NC(C)(C)C(=O)N[C@H](C(=O)N[C@@H](CCCNC(=N)N)C(=O)N[C@@H](CCC(N)=O)C(=O)N[C@@H](CCCNC(=N)N)C(=O)N[C@@H](CC1CCCCC1)C(N)=O)[C@@H](C)O
B8: Ac-[D-Pro24, Pya(4)26, Cha27,36, Aib28,31, Arg30]-PYY(23-36) (peptide)
peptide: Ac-S[dP]R[4Pal][Cha][Aib]NR[Aib]TRQR[Cha]-NH2
SMILES: CC(=O)N[C@@H](CO)C(=O)N1CCC[C@@H]1C(=O)N[C@@H](CCCNC(=N)N)C(=O)N[C@@H](Cc1ccncc1)C(=O)N[C@@H](CC1CCCCC1)C(=O)NC(C)(C)C(=O)N[C@@H](CC(N)=O)C(=O)N[C@@H](CCCNC(=N)N)C(=O)NC(C)(C)C(=O)N[C@H](C(=O)N[C@@H](CCCNC(=N)N)C(=O)N[C@@H](CCC(N)=O)C(=O)N[C@@H](CCCNC(=N)N)C(=O)N[C@@H](CC1CCCCC1)C(N)=O)[C@@H](C)O
B9: 4-Pyridinecarbonyl-[Glu23, D-Pro24, Nle25, Pya(4)26, Cha27,36, Aib28,31, Lys30]-PYY(23-36) (peptide)
peptide: Isonicotinoyl-E[dP][Nle][4Pal][Cha][Aib]NK[Aib]TRQR[Cha]-NH2
SMILES: CCCC[C@H](NC(=O)[C@H]1CCCN1C(=O)[C@H](CCC(=O)O)NC(=O)c1ccncc1)C(=O)N[C@@H](Cc1ccncc1)C(=O)N[C@@H](CC1CCCCC1)C(=O)NC(C)(C)C(=O)N[C@@H](CC(N)=O)C(=O)N[C@@H](CCCCN)C(=O)NC(C)(C)C(=O)N[C@H](C(=O)N[C@@H](CCCNC(=N)N)C(=O)N[C@@H](CCC(N)=O)C(=O)N[C@@H](CCCNC(=N)N)C(=O)N[C@@H](CC1CCCCC1)C(N)=O)[C@@H](C)O
B10: Ac-[Iva24, Pya(4)26, Cha27,36, Aib28,31, Lys30]-PYY(23-36) (peptide)
peptide: Ac-S[Iva]R[4Pal][Cha][Aib]NK[Aib]TRQR[Cha]-NH2
SMILES: CC[C@](C)(NC(=O)[C@H](CO)NC(C)=O)C(=O)N[C@@H](CCCNC(=N)N)C(=O)N[C@@H](Cc1ccncc1)C(=O)N[C@@H](CC1CCCCC1)C(=O)NC(C)(C)C(=O)N[C@@H](CC(N)=O)C(=O)N[C@@H](CCCCN)C(=O)NC(C)(C)C(=O)N[C@H](C(=O)N[C@@H](CCCNC(=N)N)C(=O)N[C@@H](CCC(N)=O)C(=O)N[C@@H](CCCNC(=N)N)C(=O)N[C@@H](CC1CCCCC1)C(N)=O)[C@@H](C)O
B11: Ac-[D-Pro24, Aib25,28,31, Cha27,36, Lys30]-PYY(23-36) (peptide)
peptide: Ac-S[dP][Aib]H[Cha][Aib]NK[Aib]TRQR[Cha]-NH2
SMILES: CC(=O)N[C@@H](CO)C(=O)N1CCC[C@@H]1C(=O)NC(C)(C)C(=O)N[C@@H](Cc1c[nH]cn1)C(=O)N[C@@H](CC1CCCCC1)C(=O)NC(C)(C)C(=O)N[C@@H](CC(N)=O)C(=O)N[C@@H](CCCCN)C(=O)NC(C)(C)C(=O)N[C@H](C(=O)N[C@@H](CCCNC(=N)N)C(=O)N[C@@H](CCC(N)=O)C(=O)N[C@@H](CCCNC(=N)N)C(=O)N[C@@H](CC1CCCCC1)C(N)=O)[C@@H](C)O
B12: [D-pGlu24, Pya(4)26, Cha27,36, Aib28,31, Lys30]-PYY(24-36) (peptide)
peptide: [d(pGlu)]R[4Pal][Cha][Aib]NK[Aib]TRQR[Cha]-NH2
SMILES: C[C@@H](O)[C@H](NC(=O)C(C)(C)NC(=O)[C@H](CCCCN)NC(=O)[C@H](CC(N)=O)NC(=O)C(C)(C)NC(=O)[C@H](CC1CCCCC1)NC(=O)[C@H](Cc1ccncc1)NC(=O)[C@H](CCCNC(=N)N)NC(=O)[C@H]1CCC(=O)N1)C(=O)N[C@@H](CCCNC(=N)N)C(=O)N[C@@H](CCC(N)=O)C(=O)N[C@@H](CCCNC(=N)N)C(=O)N[C@@H](CC1CCCCC1)C(N)=O

These binders were tested against human Y2 receptor (human) (UniProt P49146) (assay: cell-based or functional assay).
Chain of human Y2 receptor (human) (P49146 whole entry): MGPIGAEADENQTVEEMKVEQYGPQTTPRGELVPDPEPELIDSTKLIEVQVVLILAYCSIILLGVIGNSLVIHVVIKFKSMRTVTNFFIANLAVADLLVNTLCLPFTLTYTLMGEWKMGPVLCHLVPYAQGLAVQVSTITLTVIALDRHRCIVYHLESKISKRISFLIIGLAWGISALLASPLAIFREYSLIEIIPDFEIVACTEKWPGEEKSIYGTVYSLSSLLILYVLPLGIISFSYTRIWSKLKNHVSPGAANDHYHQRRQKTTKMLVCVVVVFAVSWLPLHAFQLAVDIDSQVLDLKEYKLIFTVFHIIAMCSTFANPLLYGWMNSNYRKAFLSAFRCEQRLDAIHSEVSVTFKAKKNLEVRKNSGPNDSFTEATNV

Binder	GBA EC50 Ratio ([35S]GTPγS binding) (EC50 compound/EC50 PYY(3-36))
B1	1.1
Ac-S[βHOAla]R[4Pal][Cha][Aib]NK[Aib]TRQR[Cha]-NH2 (also: later peak isomer, β-HOAla configuration D or L not assigned) [Ac-[β-HOAla24, Pya(4)26, Cha27,36, Aib28,31, Lys30]-PYY(23-36) later peak]	1.9
B2	2.9
B3	0.56
B4	1.7
B5	1.3
B6	2.8
Ac-S[Aipe]R[4Pal][Cha][Aib]NK[Aib]TRQR[Cha]-NH2 [Ac-[Aipe24, Pya(4)26, Cha27,36, Aib28,31, Lys30]-PYY(23-36)]	2
B7	5.2
B8	1.8
B9	5.7
B10	0.91
B11	11
B12	1.1
Ac-S[βHOAla]R[4Pal][Cha][Aib]NK[Aib]TRQR[Cha]-NH2 (also: former peak isomer, β-HOAla configuration D or L not assigned) [Ac-[β-HOAla24, Pya(4)26, Cha27,36, Aib28,31, Lys30]-PYY(23-36) former peak]	2.8

Each binder was assayed against human Y2 receptor (human) (UniProt P49146) (assay: RBA: displacement of [125I]-PYY from hY2R/CHO membranes).

Binder	IC50 Ratio (IC50 compound/IC50 PYY(3-36))
B1	0.81
Ac-S[βHOAla]R[4Pal][Cha][Aib]NK[Aib]TRQR[Cha]-NH2 (also: later peak isomer, β-HOAla configuration D or L not assigned) [Ac-[β-HOAla24, Pya(4)26, Cha27,36, Aib28,31, Lys30]-PYY(23-36) later peak]	0.85
B2	2.9
B3	0.68
B4	8.4
B5	0.39
B6	6.3
Ac-S[Aipe]R[4Pal][Cha][Aib]NK[Aib]TRQR[Cha]-NH2 [Ac-[Aipe24, Pya(4)26, Cha27,36, Aib28,31, Lys30]-PYY(23-36)]	1.3
B7	8.8
B8	1.1
B9	8.1
B10	0.58
B11	24
B12	2
Ac-S[βHOAla]R[4Pal][Cha][Aib]NK[Aib]TRQR[Cha]-NH2 (also: former peak isomer, β-HOAla configuration D or L not assigned) [Ac-[β-HOAla24, Pya(4)26, Cha27,36, Aib28,31, Lys30]-PYY(23-36) former peak]	2.4
